Where a chain is given by its changes, count along the chain named. Blank lines part the entries; values can stand above or below the binder they belong to.
What was measured:
[1] = molecular target: human IGF-1R (soluble, analyte in SPR) (human) (UniProt P08069); assay: SPR (ProteOn XPR36), 25 C, Fab captured by anti-Fab; ratio against parental Ak18
[2] = molecular target: human IGF-1R (soluble, analyte in SPR) (human) (UniProt P08069); assay: SPR (ProteOn XPR36), 25 C, Fab captured by anti-Fab, IGF-1R as analyte

x-fold increase of binding affinity (=KD (unmodified AK18)/KD (CDR-modified)) [1]: 12.4 fold | Kd [2]: 1.47 nM | koff [2]: 0.00025 s⁻¹ | kon [2]: 170000 M⁻¹ s⁻¹
B1: <IGF-1R> F13B5 Fab fragment (affinity-matured <IGF-1R> HUMAB-Clone 18) (Fab, V domains shown)
VH: QVELVESGGGVVQPGRSQRLSCAASGFTFSSYGMHWVRQAPGKGLEWVAIIWFDGSSTYYADSVRGRFTISRDNSKNTLYLQMNSLRAEDTAVYFCARELGRRYFDLWGRGTLVSVSS
VL: EIVLTQSPATLSLSPGERATLSCRASQSVSSYLAWYQQKPGQAPRLLIYQASKRATGIPARFSGSGSGTDFTLTISSLEPEDFAVYYCQQRSKYPPWTFGQGTKVESK

x-fold increase of binding affinity (=KD (unmodified AK18)/KD (CDR-modified)) [1]: 17.9 fold | Kd [2]: 1.02 nM | koff [2]: 0.000237 s⁻¹ | kon [2]: 232000 M⁻¹ s⁻¹
B2: <IGF-1R> L37F7 Fab fragment (affinity-matured <IGF-1R> HUMAB-Clone 18) (Fab, V domains shown)
VH: B1 VH
VL: B1 VL with Y32Q, Q50K, S52T, K53N

x-fold increase of binding affinity (=KD (unmodified AK18)/KD (CDR-modified)) [1]: 23.8 fold | Kd [2]: 0.769 nM | koff [2]: 0.00027 s⁻¹ | kon [2]: 351000 M⁻¹ s⁻¹
B3: <IGF-1R> L39D7 Fab fragment (affinity-matured <IGF-1R> HUMAB-Clone 18) (Fab, V domains shown)
VH: B1 VH
VL: B1 VL with S31K, Y32Q, Q50N

x-fold increase of binding affinity (=KD (unmodified AK18)/KD (CDR-modified)) [1]: 17.8 fold | Kd [2]: 1.03 nM | koff [2]: 0.000538 s⁻¹ | kon [2]: 523000 M⁻¹ s⁻¹
B4: <IGF-1R> L31D7 Fab fragment (affinity-matured <IGF-1R> HUMAB-Clone 18) (Fab, V domains shown)
VH: B1 VH
VL: B1 VL with S30I, S31Q, Y32S, Q50R, Y94W

x-fold increase of binding affinity (=KD (unmodified AK18)/KD (CDR-modified)) [1]: 68 fold | Kd [2]: 0.269 nM | koff [2]: 0.000153 s⁻¹ | kon [2]: 571000 M⁻¹ s⁻¹
B5: <IGF-1R> L31D11 Fab fragment (affinity-matured <IGF-1R> HUMAB-Clone 18) (Fab, V domains shown)
VH: B1 VH
VL: B1 VL with Q27R, S30Y, Y32S, Q50K, K53S, Y94W

— patent US20140193415A1
